How the values were obtained:
[1] = molecular target: Cmr-α ribonucleoprotein complex (RNP) (S. islandicus | S. islandicus (endogenous in the expression strain))
AcrIIIB2 [2] = molecular target: T1, AcrIIIB2 (Sulfolobus islandicus rod-shaped virus …, UniProt A0A1B3SN31 1-149); test: EMSA; 250 nM RNA, 0-15 uM protein, 10 mM EDTA, 70 C; also binds at lower temperature; EMSA: 20 mM MES pH 6.0, 10 mM EDTA, 250 nM FAM substrate, 70 C for 5 min (10 min stated for RNP in Methods); 12% native PAGE in 0.5x TB; details: protein: recombinant; tags: C-terminal 6xHis (pET30a); label: 5'-FAM
T1 sequence: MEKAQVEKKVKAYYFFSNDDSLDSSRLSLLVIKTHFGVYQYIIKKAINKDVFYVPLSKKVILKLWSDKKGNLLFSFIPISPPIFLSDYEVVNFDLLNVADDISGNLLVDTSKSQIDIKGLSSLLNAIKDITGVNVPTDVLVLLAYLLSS

AcrIIIB2 [3] = molecular target: T1, AcrIIIB2; test: EMSA; 10 mM EDTA; no difference in affinity among RNAs; EMSA: 20 mM MES pH 6.0, 10 mM EDTA, 250 nM FAM substrate, 70 C for 5 min (10 min stated for RNP in Methods); 12% native PAGE in 0.5x TB; details: protein: recombinant, tags: C-terminal 6xHis (pET30a)

His-tagged AcrIIIB2 (natural protein) was tested. Which cis RNase activity of Cmr-α RNP (100 nM) on 250 nM labeled target RNA: uncleaved target RNA, AcrIIIB2 to Cmr-α RNP molar ratios 0 to 30 [1] did it give?
The cis RNase activity of Cmr-α RNP (100 nM) on 250 nM labeled target RNA: uncleaved target RNA, AcrIIIB2 to Cmr-α RNP molar ratios 0 to 30 was 80%.

And the trans ssDNase activity of Cmr-α RNP (100 nM) with 300 nM target RNA and 300 nM labeled ssDNA: uncleaved ssDNA, AcrIIIB2 to Cmr-α RNP molar ratios 0 to 30 [1]?
Its trans ssDNase activity of Cmr-α RNP (100 nM) with 300 nM target RNA and 300 nM labeled ssDNA: uncleaved ssDNA, AcrIIIB2 to Cmr-α RNP molar ratios 0 to 30 is 15%.

Does AGUCUCGUAACCAGUCCAAGAACAGAAACCAGUCAAAUGACCG (ssRNA) [RNA1 (target RNA, 43 nt)] bind (AcrIIIB2 [2])?
Result: binds

Does CCAAGCUAAUCUACUAUAGAAUUGAAAGCU (ssRNA) [RNA2] bind (AcrIIIB2 [3]; label: 5'-FAM)?
Result: binds

Does UCAAAGCUUAGAUACCCUGGA (ssRNA) [RNA3] bind (AcrIIIB2 [3]; label: 5'-FAM)?
Result: binds

Does GUGACAGCAUCUCAUACUAGACAG (ssRNA) [RNA4] bind (AcrIIIB2 [3]; label: 3'-FAM)?
Result: binds

Source: paper PMC10681719, “An archaeal virus-encoded anti-CRISPR protein inhibits type III-B immunity by inhibiting Cas RNP complex turnover”
